Experimental data from US20260035464A1 (STAIDSON BIOPHARMA, published 2026).

Legend:
[1] = target: T1, human BTLA extracellular domain with C-terminal 10xHis tag (human, UniProt Q7Z6A9 31-157); assay: BLI (Octet RED96), antibody captured on AHC biosensor, His-tag-huBTLA in solution, 1:1 model
T1 construct: also called HuBTLA-His; His-tag-huBTLA
T1 sequence: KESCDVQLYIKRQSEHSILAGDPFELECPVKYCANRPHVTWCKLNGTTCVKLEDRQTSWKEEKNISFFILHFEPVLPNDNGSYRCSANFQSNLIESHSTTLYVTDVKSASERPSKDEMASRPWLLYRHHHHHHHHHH
Description: The following kinetic assay was performed using anti-human IgG Fc capture (AHC) biosensors (ForteBio) in kinetics buffer (PBS, 0.1% Tween-20 and 1% bovine serum albumin): (a) antibody (2 μg/mL) for 300 sec, (b) baseline for 120 sec, (c) association with purified His-tag-huBTLA (2.5, 0.5 and 0 μg/mL) and His-tag-rhesus monkey BTLA (Sino Biologcal, cat #90250-C08H) (2.5, 0.5 and 0 μg/mL) for 420 sec and (d) dissociation for 1200 sec. Data fitting and analysis was performed with Octet data analysis software 8.0 (ForteBio) using a 1:1 binding model after Savitzky-Golay filtering.

[2] = target: T2, human BTLA (Uniprot Q7Z6A9) expressed on cells (human, UniProt Q7Z6A9 31-289); assay: flow cytometry on huBTLA-overexpressing Expi293 cells, MFI
T2 construct: whole, on cells; also called huBTLA-overexpressing Expi293 cells
Description: (§1) Expi293 cells stably overexpressing huBTLA were incubated with the chimeric anti-BTLA antibodies 83F2 or 86B7 in PBS containing 0.5% BSA, 1 mM EDTA, and 0.1% sodium azide (FACS buffer) for 30 minutes at 4° C. The cells were washed, and then incubated with 10 nM phycoerythrin (PE) conjugated anti-Human Fc Ab (BioLegend, cat #409304) for 20 minutes at 4° C. Cells were washed and then analyzed by flow cytometry with Attune (ThermoFisher Scientific). Data were analyzed with FlowJo software. Antibody binding is represented as median fluorescence intensity (MFI).
FACS based binding assays of humanized anti-BTLA antibodies were performed as described above in Example 3.

[3] = target: T2, human BTLA (Uniprot Q7Z6A9) expressed …; assay: cell-based or functional assay
[4] = target: T3, huBTLA as coated in the binding ELISA of Example 3 (tag not stated) (human, UniProt Q7Z6A9 31-157); assay: ELISA, plate coated with huBTLA, detection with goat anti-human IgG Fc-AP, OD405
T3 construct: Detection was with anti-human IgG Fc
T3 sequence: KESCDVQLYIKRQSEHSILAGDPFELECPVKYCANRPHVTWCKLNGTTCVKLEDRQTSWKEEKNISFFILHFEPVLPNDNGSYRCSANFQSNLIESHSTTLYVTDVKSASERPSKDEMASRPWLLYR
Description: (§2) BTLA binding of purified recombinant chimeric antibodies by ELISA: The huBTLA and rhesus monkey BTLA antigen binding ELISA was performed on the purified recombinant chimeric antibodies. Briefly, 384-well, clear flat bottom high binding plates (Corning, cat #3700) were coated overnight at 4° C. with 0.333 μg/mL of huBTLA or rhesus monkey BTLA in PBS. The following purified process was performed as described in ELISA binding assay in Example 2, except that the secondary antibody was goat anti human IgG Fc-AP (Southern Biotech, cat #2014-04).

[5] = target: T4, extracellular domain of human BTLA with FAS, expressed on Jurkat cells (human, UniProt Q7Z6A9 31-157; P25445 174-335, limits assumed); assay: cell-based or functional assay
T4 sequence (looked up): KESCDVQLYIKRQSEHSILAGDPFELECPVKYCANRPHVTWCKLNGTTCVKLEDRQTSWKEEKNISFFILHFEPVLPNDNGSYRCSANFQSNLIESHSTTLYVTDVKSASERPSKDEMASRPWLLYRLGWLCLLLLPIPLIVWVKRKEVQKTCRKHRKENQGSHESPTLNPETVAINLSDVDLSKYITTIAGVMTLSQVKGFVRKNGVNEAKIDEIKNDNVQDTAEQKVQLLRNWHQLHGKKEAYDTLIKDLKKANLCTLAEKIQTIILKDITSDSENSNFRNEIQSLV

[6] = target: T3, huBTLA as coated in the binding ELISA …; assay: ELISA, huBTLA coated at 0.333 ug/mL, anti-human IgG Fc-AP detection
Description: as §2

[7] = target: T2, human BTLA (Uniprot Q7Z6A9) expressed …; assay: cell-based or functional assay; remark: listed apart in the source
[8] = target: T5, rhesus monkey BTLA extracellular domain protein with His tag (Sino Biological, cat #90250-C08H) (rhesus monkey, UniProt G7MKA9 31-157); assay: ELISA, rhesus monkey BTLA coated at 0.333 ug/mL, anti-human IgG Fc-AP detection
T5 construct: extracellular domain; Bought protein; also called His-tag-rhesus monkey BTLA; not shown: His tag
T5 sequence: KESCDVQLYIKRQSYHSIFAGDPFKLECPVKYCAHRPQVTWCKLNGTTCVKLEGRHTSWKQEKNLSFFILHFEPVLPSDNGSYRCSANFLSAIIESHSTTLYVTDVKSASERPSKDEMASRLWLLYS
Description: as §2

[9] = target: T5, rhesus monkey BTLA extracellular domain …; assay: ELISA, plate coated with rhesus monkey BTLA, detection with goat anti-human IgG Fc-AP, OD405
Description: as §2

[10] = target: T2, human BTLA (Uniprot Q7Z6A9) expressed …; assay: flow cytometry on Expi293 cells stably overexpressing huBTLA, PE anti-human Fc
Text: To examine the binding of the chimeric anti-BTLA antibodies to huBTLA overexpressing cells, Expi293 cells stably overexpressing huBTLA were used to perform FACS analysis. Briefly, the coding sequence of huBTLA (Uniprot, Q7Z6A9) was cloned into a lentiviral vector and the recombinant virus was packaged according to the instruction of the virus packaging kit (Lenti-X™ Packaging Single Shots, Cat #631275, Takada). The Expi293 cells were transduced with the recombinant virus.
as §1

B1: chimeric anti-BTLA antibody 86B7 (antibody, V domains shown)
VH: QVTLKESGPGILQPSQTLSLTCSFSGFSLSTFGMGVSWIRQPSGKGLEWLAHIYWDDDKRFNPSLKSRLSISKDTSNNQVFLKITTVDTADTATYYCARGNWDGETYFDYWGQGTTLTVSS
VL: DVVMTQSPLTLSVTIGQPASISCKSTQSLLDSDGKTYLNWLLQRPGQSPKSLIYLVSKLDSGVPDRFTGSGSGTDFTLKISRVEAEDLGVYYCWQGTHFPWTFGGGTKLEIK
Q: For B1, which Kd [1] is on record?
A: Its Kd is 0.257 nM.

Q: And the koff [1]?
A: Its koff is 9.98e-05 s⁻¹.

Q: What about the kon [1] of the same binder?
A: The kon was 389000 M⁻¹ s⁻¹.

Q: And the “EC50 (read off the curve)” value [2]?
A: Its value is ~0.8 nM.

Q: And the “EC50 of recovery of IL-2 production, Raji-HVEM/Jurkat-BTLA coculture” value [3]?
A: The value was 0.554 nM.

Q: What about the “EC50 (read off the curve)” value [4] of the same binder?
A: The value was ~0.4 nM.

Q: And the “EC50 of inhibition of huHVEM-Fc-induced apoptosis, Jurkat-huBTLA-FAS cells (ATP luminescence)” value [5]?
A: The value was 0.109 nM.

Q: What about the EC50 [6] of the same binder?
A: The EC50 was 0.0511 nM.

Q: What about the “EC50 of recovery of IL-2 production, Raji-HVEM/primary human T cell coculture” value [7] of the same binder?
A: The value was 1.68 nM.

Q: What about the EC50 [8] of the same binder?
A: Its EC50 is 0.0559 nM.

Q: What about the “EC50 (read off the curve)” value [9] of the same binder?
A: The value was ~0.4 nM.

Q: And the EC50 [10]?
A: The EC50 was 0.554 nM.
